Measurements reported in the supplement of paper PMC10126150.
± gives the standard deviation of the averaged measurements.

Tested on: ATP
Experiment: switch fluorescence ratio, 500 uM ATP over buffer (Cy3 cluster intensity, sum of 5 cycles each) (fold (ratio)); higher = stronger signal-on switching upon ATP binding; sequences stand for … in TCGTCGGCAGCGTCAGATGTGTATAAGAGACAGTTTTTTTTTTTTTTTTTTTTTTTTT…TC
Conditions: aptamer strand: ATP DNA aptamer (quencher-CACCTGGGGGAGTATTGCGGAGGAAGG + anchor), 100 nM annealed; ATP concentration: 500 uM
How it was run: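 Clusters with intensities outside 100-1000 RFU were excluded. The remaining Cy3-labelled switching-strand clusters on a modified Illumina MiSeq flow-cell had been annealed to 100 nM quencher-labelled ATP aptamer and imaged in selection buffer, then after 15 min with 500 uM ATP at 22 °C, for five cycles separated by NaOH stripping and re-annealing. The fluorescence ratio, averaged per switch-domain sequence, is each cluster's summed target-cycle Cy3 intensity over its summed buffer-cycle Cy3 intensity.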
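Further: ATP exposure 15 min at 22 °C before imaging.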

Sequence | switch fluorescence ratio
TATCGGGGT | 0.989 ± 0.013
TTTATAATTG | 1.03 ± 0.028
CGAACTTTTG | 0.984 ± 0.018
CGTATTTTTA | 1 ± 0.089
CCTAACACGA | 1.11 ± 0.027
ACCATAGGCT | 1.01 ± 0.055
TTGGGGCGTG | 0.971 ± 0.057
GGTTGTATCG | 1 ± 0.05
GCGGGCGTTG | 0.996 ± 0.053
TTCCAAATTG | 0.993 ± 0.017
TAGGGTTGGG | 1 ± 0.031
ACAGGGTAGC | 1 ± 0.015
AAGAAACACA | 1.02 ± 0.038
ATCGGATTTC | 1.02 ± 0.047
TGAATGAATT | 0.997 ± 0.022
CTTTGTGCGT | 0.99 ± 0.029
GGAGGGAGGA | 1.25 ± 0.3
TTCAAAAAGT | 0.991 ± 0.021
GACGAGCGGT | 1.3 ± 0.22
TGCAGGCTGC | 0.989 ± 0.048
CGAAATGCGG | 0.982 ± 0.036
CTCAAAAGTT | 1.01 ± 0.026
AGAGCTATAA | 1.254 ± 0.0015
GTTGCAGTTA | 0.9986 ± 0.0029
TCGCAGTTTC | 1.7002 ± 0.00038

Sequence | switch fluorescence ratio
AGGGGGGGAG | 1.01 ± 0.053
ACTGATAGAG | 1.02 ± 0.065
CTGGGCAGGT | 1 ± 0.016
TATCAGTTCG | 0.9961 ± 0.006
GCACATTTGC | 0.95 ± 0.079
TATAAAGGGA | 1.04 ± 0.029
TTTTTAATCT | 0.9902 ± 0.0083
TAAGAGACGA | 0.98 ± 0.024
GTTTGGGTTG | 0.989 ± 0.019
TTTTTAGCGA | 1.09 ± 0.058
GAGTGTATTT | 1.02 ± 0.016
AGCCCCGGCT | 0.967 ± 0.045
AAAGACATGG | 0.989 ± 0.017
ATTAGGAGAC | 1.005 ± 0.008
GGGTAGTGGT | 1.01 ± 0.038
TCAAAGGGCG | 0.99 ± 0.049
TCCTTCACCT | 1.24 ± 0.069
CAGTAGAGGG | 0.977 ± 0.028
GGGGTACACT | 0.9949 ± 0.0056
GCTACCAAGC | 1.07 ± 0.025
AAGAGACCTT | 1.28 ± 0.026
CAAATGGTCT | 1 ± 0.013
GGGGGATCGT | 1.02 ± 0.035
CTAATTAGAT | 1 ± 0.022
TCAGGGGCGA | 1.041 ± 0.0078

Sequence | switch fluorescence ratio
AGGTGTAAAT | 1.003 ± 0.0016
GCAAGAGTGA | 1.04 ± 0.038
ATCGTTGGG | 1.01 ± 0.055
TGCGTATTCT | 0.967 ± 0.045
GTGAGGGAGC | 1.12 ± 0.27
AAGGAATAGG | 0.98 ± 0.016
AGTTGTTATT | 1.027 ± 0.0088
CCGGGTGGGG | 1.04 ± 0.03
CGACCGGGGG | 1.11 ± 0.094
CTTACATTGC | 1.05 ± 0.029
CGTTTGACCT | 1.03 ± 0.026
GGGAAATGGT | 1.01 ± 0.027
ATTTTTGTCT | 0.983 ± 0.06
TTTTACTTGT | 1.025 ± 0.0037
GTTGGAAACA | 0.945 ± 0.01
CAGGCTACCT | 1.2 ± 0.092
ACCGTTTTTA | 1.08 ± 0.097
TTTTTTCTGG | 1 ± 0.091
AGGCGGCCTG | 0.982 ± 0.016
GACTGAGTTG | 0.998 ± 0.036
ATCGGTATAT | 1.02 ± 0.039
TAACGGAAAA | 1 ± 0.053
TATGGGAAGC | 1.03 ± 0.025
TTGAGTACCG | 0.959 ± 0.022
TCTAATTAGT | 0.993 ± 0.013

Sequence | switch fluorescence ratio
TGGGTATTCG | 0.967 ± 0.029
CGTTGCTATG | 1.01 ± 0.028
TGAATTAGAA | 0.968 ± 0.018
AATCGAGGAG | 0.957 ± 0.053
AATCATATGG | 0.969 ± 0.057
GTTTTGTGTA | 1.01 ± 0.074
TCTCGTTTT | 0.979 ± 0.025
CTCTTGGAGA | 1.01 ± 0.026
GGAGGCAAGG | 1.1 ± 0.054
CATGGATACG | 1.01 ± 0.021
GGGGGGCGAT | 1.03 ± 0.049
AGTGTGGTTA | 1.005 ± 0.01
TGCGAGTGCT | 0.976 ± 0.037
TAATGGGGTC | 0.9801 ± 0.0029
TGAGGTATGC | 0.994 ± 0.031
CTCGGGGGGA | 1.01 ± 0.018
GGGTGGGATA | 1.02 ± 0.044
AGGAGGTTAT | 1.01 ± 0.013
CAATTGGGGT | 1.03 ± 0.06
TGAGAGAGTG | 1.02 ± 0.059
AATAGGGGCA | 0.949 ± 0.017
TGTGTCTTTT | 1.01 ± 0.047
GGGAAGCCTT | 1.028 ± 0.0069
AAGAGTTGCC | 1.07 ± 0.12
GGAATTGTTT | 0.974 ± 0.048

Sequence | switch fluorescence ratio
TTTTAACGCT | 1.01 ± 0.039
AAGAGCGAGT | 1 ± 0.011
AAGTAGAATT | 1.015 ± 0.0045
GTGGGATATT | 0.9809 ± 0.0056
TGCTTGCTGT | 0.991 ± 0.01
AAATGGTCGG | 0.974 ± 0.017
CACTGGAGAG | 1.039 ± 0.0048
AGTCGGGTTC | 0.973 ± 0.032
ATAAGGAGGT | 1.012 ± 0.0081
TGGAAGGGTG | 1.05 ± 0.017
TGGGCATTAT | 1.04 ± 0.07
AAGAGGAAGG | 0.9709 ± 0.0027
GGTGCCGAAT | 0.998 ± 0.031
ATGGGGTTTT | 1.01 ± 0.02
GGGGGGAATC | 1.01 ± 0.052
TGTTATGAGT | 0.99 ± 0.036
AATGGACGTG | 1 ± 0.028
GGAACGTTCT | 0.995 ± 0.046
CAGGATATAT | 1.01 ± 0.027
TTTTTTTCAA | 1.01 ± 0.02
ATTAAGGCAA | 1.1 ± 0.014
TTGTTATGAT | 1.01 ± 0.018
AACGGGTCTA | 1.01 ± 0.035
AGGCTGTTCT | 0.991 ± 0.059
GGTTGAGATG | 0.982 ± 0.014

Sequence | switch fluorescence ratio
AGGAGGGGGT | 0.991 ± 0.033
AGAGTGGTA | 0.9491 ± 0.0052
GGAAAGAACA | 0.9817 ± 0.0079
GCCAGCGTCC | 1.62 ± 0.83
GCATGTCTGC | 0.9862 ± 0.0093
AAGCGCCCGG | 1.05 ± 0.04
GAAATAGGG | 0.983 ± 0.011
TATGATCAGG | 0.9933 ± 0.0025
TACTTGCGGA | 1.03 ± 0.042
AGTAAGAGAA | 0.995 ± 0.023
TAGAGGGGTG | 0.991 ± 0.0026
ACTGGGCCGG | 1.04 ± 0.065
ACGAACAGCG | 1.153 ± 0.004
ACATGAAGGT | 1.006 ± 0.0035
GCTGTAGAAG | 0.9951 ± 0.0056
GAACTCGATG | 1.018 ± 0.0091
GCCCCGGGGA | 1.04 ± 0.011
CGTAAGAGCT | 1 ± 0.016
TTTTGTATTT | 0.988 ± 0.035
TTAAGTCAAG | 0.98687 ± 0.00044
ATACCAGGCG | 1.24 ± 0.069
TAAAAAAGG | 0.997 ± 0.042
TATGATGGGA | 0.9911 ± 0.0093
TTTAGAAAAC | 0.984 ± 0.037
ACTTGAGGAT | 1 ± 0.017

Sequence | switch fluorescence ratio
CTATAATAGG | 0.961 ± 0.01
CTGGCCTTTG | 0.983 ± 0.036
TAAAAAGGGG | 0.998 ± 0.012
TTTATAAGAT | 1.01 ± 0.012
AGAGGTGTCT | 1 ± 0.049
AGTGTGGGCT | 1.04 ± 0.021
GTTCCGGTCG | 1.07 ± 0.098
TATGAACCGT | 0.984 ± 0.052
CACTGGTTAA | 0.995 ± 0.013
GAGTCGGGGG | 0.985 ± 0.01
TTGGTTTCGA | 0.98 ± 0.013
GGGTATATGG | 1.01 ± 0.022
AGGGACGTTC | 0.967 ± 0.024
ATTGAAAAGG | 0.96 ± 0.028
TGGGTTTTTC | 0.968 ± 0.03
ATGTCGTGTG | 0.9923 ± 0.0066
AAAATATGGG | 0.987 ± 0.031
TTTTTCTCTT | 0.996 ± 0.021
TTTTGGACCC | 1.01 ± 0.035
ACATTTTGCG | 0.99926 ± 0.00068
GCGGGCTTCA | 1.01 ± 0.025
TCATTTTTCT | 0.98 ± 0.021
GGTAGCTTGG | 1.13 ± 0.17
CTAACGCGCA | 1.11 ± 0.0043
TTTGATTCGG | 0.983 ± 0.017

Sequence | switch fluorescence ratio
GGGCTGCCGA | 1.03 ± 0.021
TTTGAGGGCT | 1.006 ± 0.0023
AGAGTAAAGC | 0.996 ± 0.02
TCGAGACAGG | 1 ± 0.027
GACGATTGTG | 0.991 ± 0.07
CAGGACTATT | 0.995 ± 0.021
AGTAGCTTTT | 0.997 ± 0.016
CACAGGCCAA | 1.2 ± 0.029
GGACATAATT | 1.01 ± 0.029
AAAAGCAGCG | 1.03 ± 0.05
TGGTGTCGGG | 0.998 ± 0.013
TTTCTGCAGT | 1.27 ± 0.38
ATGCTTGATT | 1.017 ± 0.0041
AGTCCTAGGT | 1.03 ± 0.022
GATGTCACGA | 1.03 ± 0.028
CGATGGCGTT | 0.96 ± 0.016
TAGGCTAGGG | 0.9713 ± 0.0062
AAATCGGTGG | 1.01 ± 0.046
CTGTTTATTG | 0.977 ± 0.027
TTTGATTAAT | 0.987 ± 0.011
GATTTCATCA | 0.967 ± 0.057
ATAGTGAGCG | 1.01 ± 0.025
AAAAAATAGG | 1.01 ± 0.028
GGGAACCGGG | 1.2 ± 0.33
AGTTGTCTCT | 0.979 ± 0.035
